Results published in patent US11760780B2, “Targeting dimerization of BAX to modulate BAX activity” (ALBERT EINSTEIN COLLEGE OF MEDICINE, priority 2014, dated 2023).
Positions of bridges follow the written chain, without caps; N, C: chain ends. Non-standard residues stand in square brackets, D forms with d. S5 = C=CCCC[C@](C)(N)C(=O)O

What was measured:
Assay type in all cases: biochemical
BAX 4MA dimer = biological target: T1, BAX 4MA dimer (Homo sapiens, UniProt Q07812, C126S/C62S/I136C/V121C); test: BAX dimer dissociation / oligomerization by size exclusion chromatography; conditions: FIG. 14A
T1 construct: made in house; host or cells: E. coli BL21 (DE3) codon+
Description: Superdex 75 10/300 GL and 200 10/300 GL (GE Healthcare) columns were used for size exclusion chromatography of recombinant proteins and cell extracts. Recombinant protein was injected in columns equilibrated with a buffer containing 20 mM HEPES pH 7.2, 150 mM KCl, 1 mM DTT. 1 mg of cytosolic or membrane extracts was applied to a Superdex 200 10/300 GL equilibrated in buffer containing 10 mM Tris, pH 7.5, 1 mM EGTA, 200 mM Sucrose and Complete Protease Inhibitors. Fractions of 500 μl were collected, and 30 μl of each fraction was analyzed by SDS-PAGE and immunoblotting. All operations were run at 4° C. Gel filtration molecular weight markers (GE Healthcare) were also subjected to the columns to obtain a standard curve for the estimation of the molecular weight of the proteins.
BAX wild type and mutants were concentrated to ˜0.5 mM in BAX buffer (10 mM HEPES pH 7, 150 mM KCl, 1 mM DTT) and incubated at 20° C. for 1-3 days before diluting to a total volume of 250 μl and loaded onto a Superdex 75 HR 10/30 size exclusion column (GE Healthcare). These conditions allow a controlled dimerization process than aggregation due to BAX activation. Separation of monomeric and dimeric BAX was achieved using a flow rate of 0.5 ml/min at 4° C. The chromatogram traces show the monomeric and dimeric peaks at ˜11.8 and ˜10.4 ml, respectively. […]

BAX [1] = biological target: T2, BAX (Homo sapiens, UniProt Q07812, P168G); test: Liposomal permeabilization assay (ANTS/DPX release); conditions: purified BAX P168G dimer, increasing doses, maximum release at 90 min, FIG. 14B
T2 construct: made in house; host or cells: E. coli BL21 (DE3) codon+
Description: (§1) Liposomes were composed of the following molar percentages of lipids (Avanti Polar Lipids): phosphatidylcholine, 48%; phosphatidylethanolamine, 28%; phosphatidylinositol, 10%; dioleoyl phosphatidylserine, 10%; and tetraoleoyl cardiolipin, 4% and were loaded with ANTS/DPX (Molecular Probe) upon extrusion. BAX (400 nM) was combined with BIM SAHBA2 at the indicated concentrations in 96-well format (Corning) and then liposomes were added (10 μl from 50 mM total lipid stock) in assay buffer (10 mM HEPES, pH 7, 200 mM KCl, 5 mM MgCl2, and 0.2 mM EDTA) to a final volume of 100 μl. ANTS/DPX release was quantified based on the increase in fluorescence intensity that occurs when the ANTS fluorophore is separated from the DPX quencher upon release from the liposomes into the supernatant. Fluorescence (λex=355 nm and λem=520 nm) was measured over time at 30° C. using a Tecan Infinite M1000 plate reader. The percentage release of ANTS/DPX at 90 min was calculated as percentage release=((F−F0)/(F100−F0))×100, where F0 and F100 are baseline and maximal fluorescence, respectively. 1% Triton treatment is used to determine the maximum amount of liposomal release per assay, and this value sets the 100% value.

BAX [2] = biological target: T3, BAX (Homo sapiens, UniProt Q07812); test: as above
T3 construct: made in house; host or cells: E. coli BL21 (DE3) codon+
Description: as §1

T3 sequence (Q07812 whole entry): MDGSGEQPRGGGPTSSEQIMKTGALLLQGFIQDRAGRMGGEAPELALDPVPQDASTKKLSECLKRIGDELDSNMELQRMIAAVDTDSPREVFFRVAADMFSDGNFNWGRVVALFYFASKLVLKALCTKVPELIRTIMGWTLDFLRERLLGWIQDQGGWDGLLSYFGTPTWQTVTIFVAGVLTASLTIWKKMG
T1 sequence (Q07812 whole entry C62S/V121C/C126S/I136C): as the sequence (Q07812 whole entry) above, with C62S, V121C, C126S, I136C counted along it
T2 sequence (Q07812 whole entry P168G): as the sequence (Q07812 whole entry) above, with P168G counted along it

Substance: N-acetylated^145EIWIAQELRS5IGDS5FNAYYA^164-CONH2 (Ac-EIWIAQELR[S5]IGD[S5]FNAYYA-NH2; staple 10-14; SMILES CC[C@H](C)[C@H](NC(=O)[C@H](Cc1c[nH]c2ccccc12)NC(=O)[C@@H](NC(=O)[C@H](CCC(=O)O)NC(C)=O)[C@@H](C)CC)C(=O)N[C@@H](C)C(=O)N[C@@H](CCC(N)=O)C(=O)N[C@@H](CCC(=O)O)C(=O)N[C@@H](CC(C)C)C(=O)N[C@@H](CCCNC(=N)N)C(=O)N[C@@]1(C)CCCC=CCCC[C@@](C)(C(=O)N[C@@H](Cc2ccccc2)C(=O)N[C@@H](CC(N)=O)C(=O)N[C@@H](C)C(=O)N[C@@H](Cc2ccc(O)cc2)C(=O)N[C@@H](Cc2ccc(O)cc2)C(=O)N[C@@H](C)C(N)=O)NC(=O)[C@H](CC(=O)O)NC(=O)CNC(=O)[C@H]([C@@H](C)CC)NC1=O) [BIM SAHBA2, Hydrocarbon-stapled peptide corresponding to the BH3 domain of BIM]
- activation of BAX 4MA monomer to induce BAX oligomerization (BAX 4MA dimer; in the presence of reducing agent (DTT)): can also activate BAX 4MA monomer to induce BAX oligomerization
- competition and dissociation of BAX 4MA dimer to monomer (BAX 4MA dimer; isolated BAX 4MA dimer, high doses, Superdex 75 SEC): can compete and dissociate the dimer into monomers
- activation of BAX P168G dimer compared to BAX WT dimer (BAX [1]): more resistant to activation
- membrane permeabilization by BAX dimer upon addition of activator (BAX [2]; SEC-isolated BAX dimer, liposomes, FIG. 1D): nearly inactive
- membrane permeabilization by BAX monomer upon addition of activator (BAX [2]; SEC-isolated BAX monomer, liposomes, FIG. 1D): activated and induced membrane permeabilization
- doses required to activate BAX WT dimer versus dose that fully activates BAX WT monomer (BAX [2]; purified BAX WT dimer, maximum release at 90 min, FIG. 14B): significantly higher
